Laboratory results published in the RNAGym collection of RNA variant scans (doi:10.1093/nar/gkz1192).

B1: CPEB3 Ribozyme (parent)
chain: UAACAGGGGGCCACAGCAGAAGCGUUCACGUCGCAGCCCCUGUCAGAUUCUGGUGAAUCUGCGAAUUCUGCUGUAUAUCUC

Variants of: B1
Experiment: self-cleavage, relative activity (ratio to wild type); higher = more cleavage; in vitro, sequencing
Summary of the method: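 After error-prone PCR and barcoding, CPEB3 ribozyme mutant libraries were transcribed with T7 RNA polymerase at 37°C for 5 hours, then given 15 min with DNase I before an EDTA stop, and they cleaved during both steps. Reverse transcription with template switching preceded Illumina sequencing. Relative activity divides a variant's cleaved/total read fraction by the unmutated ribozyme's. At least 5 reads were required per variant, and three batches were averaged.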
UAACAGGGGGCCACAGCAGAAGCGUUCACGUCGCAGCCCCUGUCAGAUUCUGUUGAAUCUGCGAAUUCUGCCGUAUAUCUC [G53U U72C] showed a self-cleavage of 1.2.
Variant UAACAGGGGGCCACAGCAGAAGCGUUCACGUCGCAGCCCCUGUCAGAUUCUGUUGAAUCUGCGAAUUCUGCAGUAUAUCUC [G53U U72A] has a self-cleavage of 0.94.
UAACAGGGGGCCACAGCAGAAGCGUUCACGUCGCAGCCCCUGUCAGAUUCUGGAGUAUCUGCGAAUUCUGCUGUAUAUCUC [U54A A56U] gave a self-cleavage of 0.66.
Variant UAACAGGGGGCCACAGCAGAAGCGUUCACGUCGCAGCCCCUGUCAGAUUCUGGAGGAUCUGCGAAUUCUGCUGUAUAUCUC [U54A A56G] has a self-cleavage of 0.82.
For UAACAGGGGGCCACAGCAGAAGCGUUCACGUCGCAGCCCCUGUCAGAUUCUGGAGAAUCUGCGAGUUCUGCUGUAUAUCUC [U54A A65G], the self-cleavage was 0.55.
In the case of UAACAGGGGGCCACAGCAGAAGCGUUCACGUCGCAGCCCCUGUCAGAUUCUGGAGAAUCUGCGAUUUCUGCUGUAUAUCUC [U54A A65U], the self-cleavage is reported as 0.26.
In the case of UAACAGGGGGCCACAGCAGAAGCGUUCACGUCGCAGCCCCUGUCAGAUUCUGGAGAAUCUGCGACUUCUGCUGUAUAUCUC [U54A A65C], the self-cleavage is reported as 0.29.
In the case of UAACAGGGGGCCACAGCAGAAGCGUUCACGUCGCAGCCCCUGUCAGAUUCUGCUGAAUCUGCGAAUUCUGCUGUAUAUCAC [G53C U80A], the self-cleavage is reported as 1.22.
Variant UAACAGGGGGCCACAGCAGAAGCGUUCACGUCGCAGCCCCUGUCAGAUUCUGCUGAAUCUGCGAAUUCUGCUGUAUAUCCC [G53C U80C] has a self-cleavage of 0.96.
Variant UAACAGGGGGCCACAGCAGAAGCGUUCACGUCGCAGCCCCUGUCAGAUUCUGGAGAAUCUGCGAAUUCUGCUUUAUAUCUC [U54A G73U] has a self-cleavage of 1.27.
UAACAGGGGGCCACAGCAGAAGCGUUCACGUCGCAGCCCCUGUCAGAUUCUGGAGAAUCUGCGAAUUCUGCUAUAUAUCUC [U54A G73A] gave a self-cleavage of 1.25.
UAACAGGGGGCCACAGCAGAAGCGUUCACGUCGCAGCCCCUGUCAGAUUCUGGAGAAUGUGCGAAUUCUGCUGUAUAUCUC [U54A C59G] showed a self-cleavage of 0.35.
UAACAGGGGGCCACAGCAGAAGCGUUCACGUCGCAGCCCCUGUCAGAUUCUGGAGAAUCUGCGAAUUCUGCUGUAUAUCUU [U54A C81U] showed a self-cleavage of 1.2.
UAACAGGGGGCCACAGCAGAAGCGUUCACGUCGCAGCCCCUGUCAGAUUCUGGAGAAGCUGCGAAUUCUGCUGUAUAUCUC [U54A U58G] showed a self-cleavage of 0.42.
For UAACAGGGGGCCACAGCAGAAGCGUUCACGUCGCAGCCCCUGUCAGAUUCUGGAGAAACUGCGAAUUCUGCUGUAUAUCUC [U54A U58A], the self-cleavage was 0.45.
UAACAGGGGGCCACAGCAGAAGCGUUCACGUCGCAGCCCCUGUCAGAUUCUGGAGAACCUGCGAAUUCUGCUGUAUAUCUC [U54A U58C] showed a self-cleavage of 0.69.
Work on UAACAGGGGGCCACAGCAGAAGCGUUCACGUCGCAGCCCCUGUCAGAUUCUGGAGAGUCUGCGAAUUCUGCUGUAUAUCUC [U54A A57G] yielded a self-cleavage of 0.91.
Variant UAACAGGGGGCCACAGCAGAAGCGUUCACGUCGCAGCCCCUGUCAGAUUCUGGAGAUUCUGCGAAUUCUGCUGUAUAUCUC [U54A A57U] has a self-cleavage of 1.04.
Work on UAACAGGGGGCCACAGCAGAAGCGUUCACGUCGCAGCCCCUGUCAGAUUCUGGAGACUCUGCGAAUUCUGCUGUAUAUCUC [U54A A57C] yielded a self-cleavage of 0.77.
UAACAGGGGGCCACAGCAGAAGCGUUCACGUCGCAGCCCCUGUCAGAUUCUGGAGAAUCUGCAAAUUCUGCUGUAUAUCUC [U54A G63A] gave a self-cleavage of 0.95.
For UAACAGGGGGCCACAGCAGAAGCGUUCACGUCGCAGCCCCUGUCAGAUUCUGUUGAAUCUGCGAAUUCUGCUGUACAUCUC [G53U U76C], the self-cleavage was 1.22.
With UAACAGGGGGCCACAGCAGAAGCGUUCACGUCGCAGCCCCUGUCAGAUUCUGGAGAAUCUACGAAUUCUGCUGUAUAUCUC [U54A G61A] the self-cleavage was 0.73.
UAACAGGGGGCCACAGCAGAAGCGUUCACGUCGCAGCCCCUGUCAGAUUCUGGAGAAUCUUCGAAUUCUGCUGUAUAUCUC [U54A G61U] showed a self-cleavage of 0.76.
UAACAGGGGGCCACAGCAGAAGCGUUCACGUCGCAGCCCCUGUCAGAUUCUGUUGAAUCUGCGAAUUUUGCUGUAUAUCUC [G53U C68U] gave a self-cleavage of 1.13.
With UAACAGGGGGCCACAGCAGAAGCGUUCACGUCGCAGCCCCUGUCAGAUUCUGGAGAAUCUGCGAAUUUUGCUGUAUAUCUC [U54A C68U] the self-cleavage was 1.03.
Work on UAACAGGGGGCCACAGCAGAAGCGUUCACGUCGCAGCCCCUGUCAGAUUCUGGAGAAUCUGCGAAUUAUGCUGUAUAUCUC [U54A C68A] yielded a self-cleavage of 0.44.
UAACAGGGGGCCACAGCAGAAGCGUUCACGUCGCAGCCCCUGUCAGAUUCUGGAGAAUCUGCGAACUCUGCUGUAUAUCUC [U54A U66C] showed a self-cleavage of 0.49.
In the case of UAACAGGGGGCCACAGCAGAAGCGUUCACGUCGCAGCCCCUGUCAGAUUCUGGAGAAUCUGCGAAGUCUGCUGUAUAUCUC [U54A U66G], the self-cleavage is reported as 0.65.
In the case of UAACAGGGGGCCACAGCAGAAGCGUUCACGUCGCAGCCCCUGUCAGAUUCUGCUGAAUCUGCGAAUUCUGCUGUAUACCUC [G53C U78C], the self-cleavage is reported as 1.08.
UAACAGGGGGCCACAGCAGAAGCGUUCACGUCGCAGCCCCUGUCAGAUUCUGUUGAAUCUGCGAAGUCUGCUGUAUAUCUC [G53U U66G] gave a self-cleavage of 0.66.
UAACAGGGGGCCACAGCAGAAGCGUUCACGUCGCAGCCCCUGUCAGAUUCUGGAUAAUCUGCGAAUUCUGCUGUAUAUCUC [U54A G55U] gave a self-cleavage of 1.15.
UAACAGGGGGCCACAGCAGAAGCGUUCACGUCGCAGCCCCUGUCAGAUUCUGGAAAAUCUGCGAAUUCUGCUGUAUAUCUC [U54A G55A] gave a self-cleavage of 0.8.
In the case of UAACAGGGGGCCACAGCAGAAGCGUUCACGUCGCAGCCCCUGUCAGAUUCUGGAGAAUCUGUGAAUUCUGCUGUAUAUCUC [U54A C62U], the self-cleavage is reported as 0.25.
With UAACAGGGGGCCACAGCAGAAGCGUUCACGUCGCAGCCCCUGUCAGAUUCUGGAGAAUCUGGGAAUUCUGCUGUAUAUCUC [U54A C62G] the self-cleavage was 0.42.
